For assay [1], the target named is rhinovirus C15 virus (recombinant RV-C isolate C15, sucrose purified) (rhinovirus C15). The experiment in a line: IP (α-His mAb) of refolded bacterial protein (100 pmol) with C15 virus (10^7 PFUe), Western blot.
Assay [2] shares this target. The experiment in a line: IP (α-CDHR3 mAb) of transfected HeLa cell lysate reacted with C15 virus, Western blot.
For assay [3] the target is unchanged. The experiment in a line: IP of CDHR3 with C15 virus, Western blot; multiple experiments and CDHR3 contexts. (A western blot detects proteins with antibodies after separation by electrophoresis.)
Assay [4] shares this target. The experiment in a line: IP (α-His mAb) of refolded bacterial protein (100 pmol) with C15 virus (10^7 PFUe), Western blot. The source holds these as a separate data set.

Turning to “rEC1-3 (FLAG-CDHR3 EC1-3-His, CDHR3 residues 20-345 with C345A), bacterially produced and refolded (from UniProt Q6ZTQ4 20-344) (receptor)”, the virus-binding efficiency (Binding % relative to positive control) in assay [1] was found to be 61%.
For “rEC1+3(Δ2) (FLAG-CDHR3 EC1+3(Δ2), residues 20-345 Δ129-231 with C345A), bacterially produced and refolded (from UniProt Q6ZTQ4 20-344) (receptor)”, in assay [1], the virus-binding efficiency (Binding % relative to positive control) amounted to 68%.
“rEC1-2 (FLAG-CDHR3 EC1-2-His, CDHR3 residues 20-237), bacterially produced and refolded (from UniProt Q6ZTQ4 20-237) (receptor)”: the virus-binding efficiency (Binding % relative to positive control) in assay [1] amounted to 87%.
On to “rEC1 (FLAG-CDHR3 EC1-His, CDHR3 residues 20-130), bacterially produced and refolded (receptor)”, for which the virus-binding efficiency (Binding % relative to positive control) in assay [1] amounted to 100%.

B1: full-length FLAG-CDHR3 Y529 N186Q (receptor)
chain: DYKDDDDKLHLILLPATGNVAENSPPGTSVHKFSVKLSASLSPVIPGFPQIVNSNPLTEAFRVNWLSGTYFEVVTTGMEQLDFETGPNIFDLQIYVKDEVGVTDLQVLTVQVTDVNEPPQFQGNLAEGLHLYIVERANPGFIYQVEAFDPEDTSRNIPLSYFLISPPKSFRMSAQGTLFSTTELDFEAGHRSFHLIVEVRDSGGLKASTELQVNIVNLNDEVPRFTSPTRVYTVLEELSPGTIVANITAEDPDDEGFPSHLLYSITTVSKYFMINQLTGTIQVAQRIDRDAGELRQNPTISLEVLVKDRPYGGQENRIQITFIVEDVNDNPATCQKFTFSIMVPERTAKGTLLLDLNKFCFDDDSEAPNNRFNFTMPSGVGSGSRFLQDPAGSGKIVLIGDLDYENPSNLAAGNKYTVIIQVQDVAPPYYKNNVYVYILTSPENEFPLIFDRPSYVFDVSERRPARTRVGQVRATDKDLPQSSLLYSISTGGASLQYPNVFWINPKTGELQLVTKVDYETTPIYILRIQATNNEDTSSVTVTVNILEENDEKPICTPNSYFLALPVDLKVGTNIQNFKLTCTDLDSSPRSFRYSIGPGNVNNHFTFSPNAGSNVTRLLLTSRFDYAGGFDKIWDYKLLVYVTDDNLMSDRKKAEALVETGTVTLSIKVIPHPTTIITTTPRPRVTYQVLRKNVYSPSAWYVPFVITLGSILLLGLLVYLVVLLAKAIHRHCPCKTGKNKEPLTKKGETKTAERDVVVETIQMNTIFDGEAIDPVTGETYEFNSKTGARKWKDPLTQMPKWKESSHQGAAPRRVTAGEGMGSLRSANWEEDELSGKAWAEDAGLGSRNEGGKLGNPKNRNPAFMNRAYPKPHPGK
On to B1, for which the Binding % (C15 signal normalized to CDHR3 signal, relative to WT) in assay [2] came to 19%.

B2: full-length FLAG-CDHR3 Y529 W76A (receptor)
chain: DYKDDDDKLHLILLPATGNVAENSPPGTSVHKFSVKLSASLSPVIPGFPQIVNSNPLTEAFRVNALSGTYFEVVTTGMEQLDFETGPNIFDLQIYVKDEVGVTDLQVLTVQVTDVNEPPQFQGNLAEGLHLYIVERANPGFIYQVEAFDPEDTSRNIPLSYFLISPPKSFRMSANGTLFSTTELDFEAGHRSFHLIVEVRDSGGLKASTELQVNIVNLNDEVPRFTSPTRVYTVLEELSPGTIVANITAEDPDDEGFPSHLLYSITTVSKYFMINQLTGTIQVAQRIDRDAGELRQNPTISLEVLVKDRPYGGQENRIQITFIVEDVNDNPATCQKFTFSIMVPERTAKGTLLLDLNKFCFDDDSEAPNNRFNFTMPSGVGSGSRFLQDPAGSGKIVLIGDLDYENPSNLAAGNKYTVIIQVQDVAPPYYKNNVYVYILTSPENEFPLIFDRPSYVFDVSERRPARTRVGQVRATDKDLPQSSLLYSISTGGASLQYPNVFWINPKTGELQLVTKVDYETTPIYILRIQATNNEDTSSVTVTVNILEENDEKPICTPNSYFLALPVDLKVGTNIQNFKLTCTDLDSSPRSFRYSIGPGNVNNHFTFSPNAGSNVTRLLLTSRFDYAGGFDKIWDYKLLVYVTDDNLMSDRKKAEALVETGTVTLSIKVIPHPTTIITTTPRPRVTYQVLRKNVYSPSAWYVPFVITLGSILLLGLLVYLVVLLAKAIHRHCPCKTGKNKEPLTKKGETKTAERDVVVETIQMNTIFDGEAIDPVTGETYEFNSKTGARKWKDPLTQMPKWKESSHQGAAPRRVTAGEGMGSLRSANWEEDELSGKAWAEDAGLGSRNEGGKLGNPKNRNPAFMNRAYPKPHPGK
Take B2: in assay [3], the more virus pull-down than comparable WT sequences (% more than WT) was 50 to 80.

B3: full-length FLAG-CDHR3 Y529 N186A (receptor)
chain: DYKDDDDKLHLILLPATGNVAENSPPGTSVHKFSVKLSASLSPVIPGFPQIVNSNPLTEAFRVNWLSGTYFEVVTTGMEQLDFETGPNIFDLQIYVKDEVGVTDLQVLTVQVTDVNEPPQFQGNLAEGLHLYIVERANPGFIYQVEAFDPEDTSRNIPLSYFLISPPKSFRMSAAGTLFSTTELDFEAGHRSFHLIVEVRDSGGLKASTELQVNIVNLNDEVPRFTSPTRVYTVLEELSPGTIVANITAEDPDDEGFPSHLLYSITTVSKYFMINQLTGTIQVAQRIDRDAGELRQNPTISLEVLVKDRPYGGQENRIQITFIVEDVNDNPATCQKFTFSIMVPERTAKGTLLLDLNKFCFDDDSEAPNNRFNFTMPSGVGSGSRFLQDPAGSGKIVLIGDLDYENPSNLAAGNKYTVIIQVQDVAPPYYKNNVYVYILTSPENEFPLIFDRPSYVFDVSERRPARTRVGQVRATDKDLPQSSLLYSISTGGASLQYPNVFWINPKTGELQLVTKVDYETTPIYILRIQATNNEDTSSVTVTVNILEENDEKPICTPNSYFLALPVDLKVGTNIQNFKLTCTDLDSSPRSFRYSIGPGNVNNHFTFSPNAGSNVTRLLLTSRFDYAGGFDKIWDYKLLVYVTDDNLMSDRKKAEALVETGTVTLSIKVIPHPTTIITTTPRPRVTYQVLRKNVYSPSAWYVPFVITLGSILLLGLLVYLVVLLAKAIHRHCPCKTGKNKEPLTKKGETKTAERDVVVETIQMNTIFDGEAIDPVTGETYEFNSKTGARKWKDPLTQMPKWKESSHQGAAPRRVTAGEGMGSLRSANWEEDELSGKAWAEDAGLGSRNEGGKLGNPKNRNPAFMNRAYPKPHPGK
On to B3, for which, in assay [2], the Binding % (C15 signal normalized to CDHR3 signal, relative to WT) came out at 11%.

B4: full-length FLAG-CDHR3 Y529 R166A (receptor)
chain: DYKDDDDKLHLILLPATGNVAENSPPGTSVHKFSVKLSASLSPVIPGFPQIVNSNPLTEAFRVNWLSGTYFEVVTTGMEQLDFETGPNIFDLQIYVKDEVGVTDLQVLTVQVTDVNEPPQFQGNLAEGLHLYIVERANPGFIYQVEAFDPEDTSANIPLSYFLISPPKSFRMSANGTLFSTTELDFEAGHRSFHLIVEVRDSGGLKASTELQVNIVNLNDEVPRFTSPTRVYTVLEELSPGTIVANITAEDPDDEGFPSHLLYSITTVSKYFMINQLTGTIQVAQRIDRDAGELRQNPTISLEVLVKDRPYGGQENRIQITFIVEDVNDNPATCQKFTFSIMVPERTAKGTLLLDLNKFCFDDDSEAPNNRFNFTMPSGVGSGSRFLQDPAGSGKIVLIGDLDYENPSNLAAGNKYTVIIQVQDVAPPYYKNNVYVYILTSPENEFPLIFDRPSYVFDVSERRPARTRVGQVRATDKDLPQSSLLYSISTGGASLQYPNVFWINPKTGELQLVTKVDYETTPIYILRIQATNNEDTSSVTVTVNILEENDEKPICTPNSYFLALPVDLKVGTNIQNFKLTCTDLDSSPRSFRYSIGPGNVNNHFTFSPNAGSNVTRLLLTSRFDYAGGFDKIWDYKLLVYVTDDNLMSDRKKAEALVETGTVTLSIKVIPHPTTIITTTPRPRVTYQVLRKNVYSPSAWYVPFVITLGSILLLGLLVYLVVLLAKAIHRHCPCKTGKNKEPLTKKGETKTAERDVVVETIQMNTIFDGEAIDPVTGETYEFNSKTGARKWKDPLTQMPKWKESSHQGAAPRRVTAGEGMGSLRSANWEEDELSGKAWAEDAGLGSRNEGGKLGNPKNRNPAFMNRAYPKPHPGK
On to B4, for which the Binding % (C15 signal normalized to CDHR3 signal, relative to WT) in assay [2] worked out at 16%.

B5: full-length FLAG-CDHR3 Y529 K43A (receptor)
chain: DYKDDDDKLHLILLPATGNVAENSPPGTSVHAFSVKLSASLSPVIPGFPQIVNSNPLTEAFRVNWLSGTYFEVVTTGMEQLDFETGPNIFDLQIYVKDEVGVTDLQVLTVQVTDVNEPPQFQGNLAEGLHLYIVERANPGFIYQVEAFDPEDTSRNIPLSYFLISPPKSFRMSANGTLFSTTELDFEAGHRSFHLIVEVRDSGGLKASTELQVNIVNLNDEVPRFTSPTRVYTVLEELSPGTIVANITAEDPDDEGFPSHLLYSITTVSKYFMINQLTGTIQVAQRIDRDAGELRQNPTISLEVLVKDRPYGGQENRIQITFIVEDVNDNPATCQKFTFSIMVPERTAKGTLLLDLNKFCFDDDSEAPNNRFNFTMPSGVGSGSRFLQDPAGSGKIVLIGDLDYENPSNLAAGNKYTVIIQVQDVAPPYYKNNVYVYILTSPENEFPLIFDRPSYVFDVSERRPARTRVGQVRATDKDLPQSSLLYSISTGGASLQYPNVFWINPKTGELQLVTKVDYETTPIYILRIQATNNEDTSSVTVTVNILEENDEKPICTPNSYFLALPVDLKVGTNIQNFKLTCTDLDSSPRSFRYSIGPGNVNNHFTFSPNAGSNVTRLLLTSRFDYAGGFDKIWDYKLLVYVTDDNLMSDRKKAEALVETGTVTLSIKVIPHPTTIITTTPRPRVTYQVLRKNVYSPSAWYVPFVITLGSILLLGLLVYLVVLLAKAIHRHCPCKTGKNKEPLTKKGETKTAERDVVVETIQMNTIFDGEAIDPVTGETYEFNSKTGARKWKDPLTQMPKWKESSHQGAAPRRVTAGEGMGSLRSANWEEDELSGKAWAEDAGLGSRNEGGKLGNPKNRNPAFMNRAYPKPHPGK
As for B5, in assay [2], the Binding % (C15 signal normalized to CDHR3 signal, relative to WT) turned out to be 46%.

B6: rEC1-3 K43A (CDHR3 residues 20-345 with K43A and C345A), bacterially produced and refolded (receptor)
chain: MASDYKDDDDKLHLILLPATGNVAENSPPGTSVHAFSVKLSASLSPVIPGFPQIVNSNPLTEAFRVNWLSGTYFEVVTTGMEQLDFETGPNIFDLQIYVKDEVGVTDLQVLTVQVTDVNEPPQFQGNLAEGLHLYIVERANPGFIYQVEAFDPEDTSRNIPLSYFLISPPKSFRMSANGTLFSTTELDFEAGHRSFHLIVEVRDSGGLKASTELQVNIVNLNDEVPRFTSPTRVYTVLEELSPGTIVANITAEDPDDEGFPSHLLYSITTVSKYFMINQLTGTIQVAQRIDRDAGELRQNPTISLEVLVKDRPYGGQENRIQITFIVEDVNDNPATAGTKHHHHHH
Turning to B6, in assay [4], the Binding % (C15 signal normalized to recombinant protein signal, relative to WT rEC1-3) was determined as 22%.

B7: rEC1-3 N186A (CDHR3 residues 20-345 with N186A and C345A), bacterially produced and refolded (receptor)
chain: MASDYKDDDDKLHLILLPATGNVAENSPPGTSVHKFSVKLSASLSPVIPGFPQIVNSNPLTEAFRVNWLSGTYFEVVTTGMEQLDFETGPNIFDLQIYVKDEVGVTDLQVLTVQVTDVNEPPQFQGNLAEGLHLYIVERANPGFIYQVEAFDPEDTSRNIPLSYFLISPPKSFRMSAAGTLFSTTELDFEAGHRSFHLIVEVRDSGGLKASTELQVNIVNLNDEVPRFTSPTRVYTVLEELSPGTIVANITAEDPDDEGFPSHLLYSITTVSKYFMINQLTGTIQVAQRIDRDAGELRQNPTISLEVLVKDRPYGGQENRIQITFIVEDVNDNPATAGTKHHHHHH
In the case of B7, the Binding % (C15 signal normalized to recombinant protein signal, relative to WT rEC1-3) in assay [4] was 85 % of WT.
